Patent US20240156863A1 (MorphoSys, published 2024)

Target: T1, Human CD19 (human, UniProt P15391 20-556)
T1 construct: Endogenous CD19 on the CD19+ cell lines Jeko (JeKo-1), Nalm-6 and Ly7; also called B-lymphocyte antigen CD19; B4
T1 sequence: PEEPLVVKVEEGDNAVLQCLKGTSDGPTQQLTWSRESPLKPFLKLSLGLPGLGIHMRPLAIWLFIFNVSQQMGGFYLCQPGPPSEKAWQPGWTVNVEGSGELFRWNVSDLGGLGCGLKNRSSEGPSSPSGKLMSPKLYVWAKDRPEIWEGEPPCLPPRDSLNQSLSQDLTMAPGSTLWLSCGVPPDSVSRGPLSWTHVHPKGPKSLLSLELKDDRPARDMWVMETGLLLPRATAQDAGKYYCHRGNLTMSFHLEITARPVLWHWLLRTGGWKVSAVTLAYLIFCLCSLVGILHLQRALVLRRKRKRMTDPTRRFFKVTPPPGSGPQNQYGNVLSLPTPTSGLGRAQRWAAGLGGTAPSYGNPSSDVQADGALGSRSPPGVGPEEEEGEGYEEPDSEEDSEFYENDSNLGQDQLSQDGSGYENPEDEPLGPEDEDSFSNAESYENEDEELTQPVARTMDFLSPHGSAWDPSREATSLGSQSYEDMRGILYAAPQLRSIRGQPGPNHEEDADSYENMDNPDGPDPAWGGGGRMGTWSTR
Assay: Pre-incubation of CD19+ Nalm-6 or Jeko cells, then flow cytometry with FMC63 as competitor
Procedure: FIG. 2: Clone FMC63 (CD19 binding domain in CART19) and tafasitamab compete for CD19 binding. After 4 hours of treatment of Jeko cells with 2 or 0.5 mg/mL of tafasitamab, flow cytometry using the FMC63 anti-CD19 antibody was performed.
It was studied, whether the observed CART19 activity may be influenced by tafasitamab in case of a direct CD19 binding competition between tafasitamab and the CAR. To first test for such binding competition, the CD19+ cell lines Nalm-6 or Jeko were incubated with 2 or 0.5 mg/mL tafasitamab, to saturate the receptors. […] To investigate for any potential impact of such binding competition on CART19 cell effector functions, tafasitamab was incubated with target cells (CD19+ cell lines Jeko, Ly7 or Nalm-6) at increasing concentrations and then CART19 cells were added at different effector: target ratios (0.1:1 to 10:1), without other effector cells to the cell culture.

binding result: binds
B1: tafasitamab (antibody, human IgG1, kappa, V domains shown)
VH: EVQLVESGGGLVKPGGSLKLSCAASGYTFTSYVMHWVRQAPGKGLEWIGYINPYNDGTKYNEKFQGRVTISSDKSISTAYMELSSLRSEDTAMYYCARGTYYYGTRVFDYWGQGTLVTVSS
VL: DIVMTQSPATLSLSPGERATLSCRSSKSLQNVNGNTYLYWFQQKPGQSPQLLIYRMSNLNSGVPDRFSGSGSGTEFTLTISSLEPEDFAVYYCMQHLEYPITFGAGTKLEIKR
notes: Fc-enhanced, humanized monoclonal anti-CD19 antibody; also called MOR00208; MOR208
